Data on eight molecules can be found in patent publication US10597674B2, “HPPD variants and methods of use” (BASF Agricultural Solutions Seed, US LLC, priority 2015, dated 2020).

Numbering of substitutions follows the chain as printed. Read-outs that look alike come from different tables or passages of the source.

For series [1], the system named is HPPD polypeptides (wild-type SEQ ID NO:1 and mutants). As to the method:
For the generation of crude HPPD polypeptide extract in micro titer plates (MTP) for the determination of residual activity in inhibition assays, cells were grown in 40 or 150 μl LB medium containing 1% Glucose (Merck, Darmstadt, Germany) and 100 μg/ml ampicillin in a standard 96 well plate (Thermo Fisher Scientific, Waltham, USA) incubated for about 18 h in a humidity incubator at 37° C.
30 μl of this starter culture were added to 600 μl LB medium containing 100 μg/ml ampicillin and 150 mM Hepes (Merck, Darmstadt, Germany) as inoculum for the expression culture in 96 well plates (2 ml deep wells; HJ Bioanalytik, Erkelenz, Germany) The plates were sealed by an aluminium foil, and cells were incubated for 5 h at 37° C. on a plate shaker at 750 rpm. The expression was induced by addition of IPTG in a final concentration of 1 mM followed by further sealed incubation for about 18 h at 30° C. on a plate shaker at 750 rpm.
Cells were harvested by centrifugation at 4° C., 2500 g for 15 min discarding the supernatant. Cell pellets were stored at −80° C. and lysed in 250 μl 1× BugBuster® (Merck, Darmstadt, Germany) in 140 mM Tris (pH 7.8), with 1:25000 diluted BNase® (Qiagen, Hilden, Germany) by incubation of the resuspended cells for 30 min at 4° C. and 1000 rpm. Lysates were clarified by centrifugation for 15 min at 4° C., 2500 g, and 150 μl supernatant were transferred in standard 96 well plate (Thermo Fisher Scientific, Waltham, USA) for subsequent testing in quadruplets.
The activity of HPPD polypeptides was determined in absence or presence of HPPD inhibitors using the coupled HPPD activity assay (FIG. 1).
For the determination of the residual activity, the apparent kinetic constant (kapp) of the determined substrate conversion was measured as kinetic changes in absorbance at 320 nm in a coupled assay, in that homogentisate (HGA) formed by HPPD from HPP is directly converted into the well absorbing molecule maleylacetoacetate (MAA) by a second enzyme homogentisate dioxygenase (HGD), applied in excess uniformly in all assays (see FIG. 1). The measurements were performed in 384 micro titer plates (Greiner Bio-One GmbH, Frickenhausen, Germany) by plate readers (Tecan infinite M1000 or M1000PRO, Tecan, Männedorf, Switzerland). The kcat/kM ratio of an enzymatic activity is proportional to the apparent kinetic constant kapp and is proportional to kcat/kM*[E] ([E]=enzyme concentration). […] As both kapp measurements in the presence and absence of inhibitor were performed by use of the identical enzyme sample, crude or purified, and thereby at the same enzyme concentration, the enzyme concentration eliminates from the calculation of residual activity and the ratio of both kapp directly indicates the change of kM due to the inhibition.

The test system of series [2] is E. coli cells expressing an HPPD polypeptide. As to the kind of experiment: Brown color bioassay in liquid culture, residual brown color formation (BCF), OD440 after 96 hours. It is filed as cell-based. Conditions: for Control BCF OD440nm: brown color formation in absence of Cmpd. 1, culture supernatant after 96 hours, 5 mM HPP; for Residual BCF OD440nm [%]: brown color formation with Cmpd. 1 (1000 μM) relative to without, after 96 hours. As to the method:
In an additional experiment, mutant HPPD polypeptides were analyzed using the principle of a colorimetric brown color assay (as, for example, described in U.S. Pat. No. 6,768,044). Bacterial cells expressing the HPPD polypeptides according to this invention were assayed in 96 well plate format (Nunc® 96 DeepWell™ plate, Sigma-Aldrich, St. Louis, USA) for HPPD polypeptides with improved HPPD inhibitor herbicide tolerance.
E. coli cells were grown in liquid LB medium (Carl Roth GmbH+Co. KG, Karlsruhe, Germany) containing the selection agent for the expression vector pSE420(RI)NX (WO2014/043435) and 5 mM para-hydroxyphenylpyruvate (HPP; Sigma-Aldrich, St. Louis, USA), in the presence of absence of the HPPD inhibitor herbicide e.g. Cmpd. 1 (1000 μM). An overnight culture of E. coli culture expressing one of the respective HPPD polypeptides according to this invention were adjusted to an OD600 of 0.3-0.5 in a final volume of 500 μL and incubated at 30 degree Celsius. Residual brown color formation was determined by measuring the brown color formation (BCF) in the presence and absence of Cmpd. […] Therefore, after 96 hours the culture was centrifuged and the supernatant of the culture was used to measure the optical density of the soluble brown pigment formation at 440 nm (OD440 nm).

[3] abbreviates: in the presence of Cmpd. 1, 15 μM inhibitor, high substrate concentration, kapp normalized to kapp without inhibitor.
[4] abbreviates: in the presence of Cmpd. 1, 15 μM inhibitor, high substrate concentration, total change in signal normalized to no inhibitor.
Setting [5] is: in the presence of Cmpd. 2, 15 μM inhibitor, high substrate concentration, kapp normalized to kapp without inhibitor.
Where [6] appears, read: in the presence of Cmpd. 2, 15 μM inhibitor, high substrate concentration, total change in signal normalized to no inhibitor.
[7] abbreviates: in the presence of diketonitrile (DKN), 60 μM inhibitor, high substrate concentration, kapp normalized to kapp without inhibitor.
Setting [8] is: in the presence of diketonitrile (DKN), 60 μM inhibitor, high substrate concentration, total change in signal normalized to no inhibitor.
The mark [9] stands for this setting: in the presence of mesotrione (MST), 60 μM inhibitor, high substrate concentration, kapp normalized to kapp without inhibitor.
The mark [10] stands for this setting: in the presence of mesotrione (MST), 60 μM inhibitor, high substrate concentration, total change in signal normalized to no inhibitor.

With `Cc1nnc(NC(=O)c2ccc(C(F)(F)F)c(S(C)(=O)=O)c2C)o1` [Cmpd. 2, 2-methyl-N-(5-methyl-1,3,4-oxadiazol-2-yl)-3-(methylsulfonyl)-4-(trifluoromethyl)benzamide, reference compound], the Residual activity in series [1] (setting [3]) was found to be 39%; in series [1] (setting [5]), 51%; in series [1] (setting [7]) it was 86%; in series [1] (setting [9]) it was 71%. Further, the Residual turnover is 50% in series [1] (setting [4]), 72% in series [1] (setting [6]), 93% in series [1] (setting [8]) and 85% in series [1] (setting [10]). For the same molecule, the “Control BCF OD440nm” value in series [2] amounted to 2.68. In addition, in series [2], the “Residual BCF OD440nm [%]” value came to 18%.

B1: 14 (protein)
chain: MADLYENPMGLMGFEFIEFASPTPGTLEPIFEIMGFTKVATHRSKNVHLYRQGEINLILNNEPNSIASYFAAEHGPSVCGMAFRVKDSQKAYNRALELGAQPIHIDTGPMELNLPAIKGIGGAPLYLIDRFGEGSSIYDIDFVYLEGVERNPVGAGLKVIDHLTHNVYRGRMVYWANFYEKLFNFREARYFDIKGEYTGLTSKAMSAPDGMIRIPLNEESSKGAGQIEEFLMQFNGEGIQHVAFLTDDLVKTWDALKKIGMRFMTAPPDTYYEMLEGRLPDHGEPVDQLQARGILLDGSSVEGDKRLLLQIFSETLMGPVFFEFIQRKGHDGFGPDSFKVLFESVERDQVRRGVLTAD
modifications: mutant HPPD polypeptide
B1: the Residual activity worked out at 44% in series [1] (setting [3]), 82% in series [1] (setting [5]), 91% in series [1] (setting [7]) and 70% in series [1] (setting [9]). The Residual turnover is 60% in series [1] (setting [4]), 92% in series [1] (setting [6]), “n.i” in series [1] (setting [8]) and 89% in series [1] (setting [10]). Further, the “Control BCF OD440nm” value in series [2] stood at 1.42. Besides, in series [2], the “Residual BCF OD440nm [%]” value is listed as 63%.

B2: 24 (protein)
chain: B1 chain with H330D, D336H
modifications: mutant HPPD polypeptide
B2: the Residual activity in series [1] (setting [3]) is given as 28%; in series [1] (setting [5]) it was 90%; in series [1] (setting [7]), 93%; in series [1] (setting [9]), 51%. Moreover, the Residual turnover in series [1] (setting [4]) is given as 57%; in series [1] (setting [6]) it was “n.i”; in series [1] (setting [8]), “n.i”; in series [1] (setting [10]) it was 68%. Moreover, the “Control BCF OD440nm” value in series [2] is recorded as 1.56. In addition, the “Residual BCF OD440nm [%]” value in series [2] was determined as 48%.

B3: 29 (protein)
chain: B1 chain with P268S, T270S, H330D, D336H
modifications: mutant HPPD polypeptide
Regarding B3, the Residual activity in series [1] (setting [3]) stood at 33%; in series [1] (setting [5]), 85%; in series [1] (setting [7]), 94%; in series [1] (setting [9]) it was 79%. Moreover, the Residual turnover in series [1] (setting [4]) is on record as 59%; in series [1] (setting [6]), “n.i”; in series [1] (setting [8]) it was “n.i”; in series [1] (setting [10]) it was 95%. The “Control BCF OD440nm” value in series [2] worked out at 2.03. The “Residual BCF OD440nm [%]” value in series [2] is 42%.

B4: 19 (protein)
chain: B1 chain with M264R, P268G, T270E
modifications: mutant HPPD polypeptide
For B4, the Residual activity in series [1] (setting [3]) is 68%; in series [1] (setting [5]), 92%; in series [1] (setting [7]), “n.i. (no inhibition was observed under the given conditions)”; in series [1] (setting [9]), 51%; in series [1] (kapp in presence of 50 μM Cmpd. 1, normalised to kapp without inhibitor, low substrate concentration) it was 67%. For the same molecule, the Residual turnover in series [1] (setting [4]) is on record as 79%; in series [1] (setting [6]) it was 93%; in series [1] (setting [8]), “n.i”; in series [1] (setting [10]) it was 78%; in series [1] (total change in signal in presence of 50 μM Cmpd. 1, normalised to that without inhibitor, low substrate concentration), 88%. The “Control BCF OD440nm” value in series [2] amounted to 1.65. Also, the “Residual BCF OD440nm [%]” value in series [2] is reported as 60%.

B5: 107 (protein)
chain: B1 chain with R213K, P268G, T270E, H330D, D336H, F338V, V340R
modifications: mutant HPPD polypeptide
As to B5, in series [2], the “Control BCF OD440nm” value was 1.38 and the “Residual BCF OD440nm [%]” value stood at 84%.

B6: 21 (protein)
chain: B1 chain with H330D, D336H, V340A, V345I
modifications: mutant HPPD polypeptide
B6: the Residual activity in series [1] (setting [3]) stood at 18%; in series [1] (setting [5]), 73%; in series [1] (setting [7]), 81%; in series [1] (setting [9]) it was 62%. Further, the Residual turnover is on record as 30% in series [1] (setting [4]), 84% in series [1] (setting [6]), “n.i” in series [1] (setting [8]) and 89% in series [1] (setting [10]). Also, in series [2], the “Control BCF OD440nm” value is given as 0.99. Also, the “Residual BCF OD440nm [%]” value in series [2] is reported as 65%.

B7: 22 (protein)
chain: B1 chain with H330D, D336H, V345I
modifications: mutant HPPD polypeptide
As for B7, the Residual activity in series [1] (setting [3]) is reported as 26%; in series [1] (setting [5]) it was 90%; in series [1] (setting [7]) it was “n.i”; in series [1] (setting [9]), 77%. In addition, the Residual turnover is 53% in series [1] (setting [4]), “n.i” in series [1] (setting [6]), “n.i” in series [1] (setting [8]) and 99% in series [1] (setting [10]). The “Control BCF OD440nm” value in series [2] amounted to 1.67. Moreover, in series [2], the “Residual BCF OD440nm [%]” value is listed as 58%.
